This is an account of results in paper PMC2685089.

Common to all, as to assay: EMSA
On the technique in general: In EMSA bound probe runs differently from free probe, usually more slowly.

Data set [1] concerns the target T1, Up1 (UniProt P09651-2 2-196).
Another data set addresses hnRNP A1 (A1) (UniProt P09651-2 2-320).
The target in data set [2] is T1, Up1. The source holds these as a separate data set.

B1: 32R (structured_DNA)
DNA: AGGGCGGTGTGGGAAGAGGGAAGAGGGGGAGG
One may read the Kd as the concentration at which binding is half-saturated. High values mean lower affinity, low ones higher affinity. B1 yielded a Kd with Up1 [1] of roughly 50 nM.

B2: dsNHE (32R:32Y) (dsDNA)
DNA 1: AGGGCGGTGTGGGAAGAGGGAAGAGGGGGAGG
DNA 2: CCTCCCCCTCTTCCCTCTTCCCACACCGCCCT
Regarding B2, the binding result in the data set with hnRNP A1 (A1) and with Up1 [2] was “no binding” in each case.

B3: CKIT (structured_DNA)
DNA: AGGGAGGGCGCTGGGAGGAGGG
For B3, the binding result with Up1 [2] is on record as “binds”.
